Laboratory results: article PMC4174003 (2014)

Experiments:
PCSK9 [1] = molecular target: T1, PCSK9 (Mus musculus, UniProt Q80W65); assay: SPR
T1 chain: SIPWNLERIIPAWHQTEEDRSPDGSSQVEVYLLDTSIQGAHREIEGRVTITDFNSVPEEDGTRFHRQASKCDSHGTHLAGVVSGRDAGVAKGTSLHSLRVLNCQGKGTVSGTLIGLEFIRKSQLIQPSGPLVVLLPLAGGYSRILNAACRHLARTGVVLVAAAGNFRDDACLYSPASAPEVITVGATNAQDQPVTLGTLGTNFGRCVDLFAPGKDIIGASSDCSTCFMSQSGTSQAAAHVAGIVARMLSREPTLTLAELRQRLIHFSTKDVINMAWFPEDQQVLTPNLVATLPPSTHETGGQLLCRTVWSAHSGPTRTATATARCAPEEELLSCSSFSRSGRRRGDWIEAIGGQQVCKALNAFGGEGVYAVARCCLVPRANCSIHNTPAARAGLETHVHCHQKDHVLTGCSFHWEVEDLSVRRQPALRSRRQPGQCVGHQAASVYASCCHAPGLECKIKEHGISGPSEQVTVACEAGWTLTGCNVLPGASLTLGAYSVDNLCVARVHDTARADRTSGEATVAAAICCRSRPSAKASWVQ

PCSK9 [2] = molecular target: PCSK9 (Homo sapiens, UniProt Q8NBP7); assay: SPR
PCSK9 (Homo sapiens, UniProt Q8NBP7), sequence (Q8NBP7 153-692): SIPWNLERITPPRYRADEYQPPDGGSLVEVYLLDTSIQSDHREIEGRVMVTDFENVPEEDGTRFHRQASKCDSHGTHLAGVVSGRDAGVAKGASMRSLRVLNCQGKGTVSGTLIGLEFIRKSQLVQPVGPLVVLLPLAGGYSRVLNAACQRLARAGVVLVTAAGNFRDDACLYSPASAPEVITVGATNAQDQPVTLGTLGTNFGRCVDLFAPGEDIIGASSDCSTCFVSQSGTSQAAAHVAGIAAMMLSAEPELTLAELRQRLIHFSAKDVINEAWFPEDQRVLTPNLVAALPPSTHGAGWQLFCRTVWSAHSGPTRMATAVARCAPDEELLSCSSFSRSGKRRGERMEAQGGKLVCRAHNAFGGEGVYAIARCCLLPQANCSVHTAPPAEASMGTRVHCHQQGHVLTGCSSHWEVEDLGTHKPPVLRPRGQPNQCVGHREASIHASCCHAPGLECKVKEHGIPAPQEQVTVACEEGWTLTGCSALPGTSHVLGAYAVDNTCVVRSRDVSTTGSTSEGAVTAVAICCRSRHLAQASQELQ

B1: alirocumab (antibody, V domains shown)
VH: EVQLVESGGGLVQPGGSLRLSCAASGFTFNNYAMNWVRQAPGKGLDWVSTISGSGGTTNYADSVKGRFIISRDSSKHTLYLQMNSLRAEDTAVYYCAKDSNWGNFDLWGRGTLVTVSS
VL: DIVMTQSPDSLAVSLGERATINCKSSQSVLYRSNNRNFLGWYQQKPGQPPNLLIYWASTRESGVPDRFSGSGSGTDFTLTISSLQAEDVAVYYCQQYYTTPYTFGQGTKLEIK
Binder B1 has a Kd (PCSK9 [1]) of 2.6 nM and a Kd (PCSK9 [2]) of 0.58 nM.
